Data set [1] concerns the molecule itself. Kind of data set: SEC.
Data set [2] concerns the molecule itself. In words: cell-based or functional assay.
Data set [3] deals with the molecule itself. In words: SEC. The source holds these as a separate data set.

B1: S167D-catalase (phospho-mimic mutant of human catalase) (enzyme, UniProt P04040 1-527, looked up)
chain: MADSRDPASDQMQHWKEQRAAQKADVLTTGAGNPVGDKLNVITVGPRGPLLVQDVVFTDEMAHFDRERIPERVVHAKGAGAFGYFEVTHDITKYSKAKVFEHIGKKTPIAVRFSTVAGESGSADTVRDPRGFAVKFYTEDGNWDLVGNNTPIFFIRDPILFPSFIHDQKRNPQTHLKDPDMVWDFWSLRPESLHQVSFLFSDRGIPDGHRHMNGYGSHTFKLVNANGEAVYCKFHYKTDQGIKNLSVEDAARLSQEDPDYGIRDLFNAIATGKYPSWTFYIQVMTFNQAETFPFNPFDLTKVWPHKDYPLIPVGKLVLNRNPVNYFAEVEQIAFDPSNMPPGIEASPDKMLQGRLFAYPDTHRHRLGPNYLHIPVNCPYRARVANYQRDGPMCMQDNQGGAPNYYPNSFGAPEQQPSALEHSIQYSGEVRRFNTANDDNVTQVRAFYVNVLNEEQRKRLCENIAGHLKDAQIFIQKKAVKNFTEVHPDYGSHIQALLDKYNAEKPKNAIHTFVQSGSHLAAREKANL
As for B1, in “SEC [1]”, the “Dimer (%)” value is 9.2% and the “Tetramer (%)” value is 44.4%. In addition, the “rate of H2O2 decomposition by the purified protein, against wildtype catalase” value in data set [2] was 2 fold. Besides, the “stoichiometry N” value in the data set “SEC [3]” was 4.

B2: recombinant human wildtype catalase (enzyme, UniProt P04040 1-527, looked up)
chain: MADSRDPASDQMQHWKEQRAAQKADVLTTGAGNPVGDKLNVITVGPRGPLLVQDVVFTDEMAHFDRERIPERVVHAKGAGAFGYFEVTHDITKYSKAKVFEHIGKKTPIAVRFSTVAGESGSADTVRDPRGFAVKFYTEDGNWDLVGNNTPIFFIRDPILFPSFIHSQKRNPQTHLKDPDMVWDFWSLRPESLHQVSFLFSDRGIPDGHRHMNGYGSHTFKLVNANGEAVYCKFHYKTDQGIKNLSVEDAARLSQEDPDYGIRDLFNAIATGKYPSWTFYIQVMTFNQAETFPFNPFDLTKVWPHKDYPLIPVGKLVLNRNPVNYFAEVEQIAFDPSNMPPGIEASPDKMLQGRLFAYPDTHRHRLGPNYLHIPVNCPYRARVANYQRDGPMCMQDNQGGAPNYYPNSFGAPEQQPSALEHSIQYSGEVRRFNTANDDNVTQVRAFYVNVLNEEQRKRLCENIAGHLKDAQIFIQKKAVKNFTEVHPDYGSHIQALLDKYNAEKPKNAIHTFVQSGSHLAAREKANL
Consider B2, for which, in “SEC [1]”, the “Dimer (%)” value was 53% and the “Tetramer (%)” value stood at 4.78%. Also, the “stoichiometry N” value in “SEC [3]” worked out at 2.

B3: recombinant human wildtype catalase incubated with PKCδ (phosphorylated at S167) (enzyme, UniProt P04040 1-527, looked up)
chain: MADSRDPASDQMQHWKEQRAAQKADVLTTGAGNPVGDKLNVITVGPRGPLLVQDVVFTDEMAHFDRERIPERVVHAKGAGAFGYFEVTHDITKYSKAKVFEHIGKKTPIAVRFSTVAGESGSADTVRDPRGFAVKFYTEDGNWDLVGNNTPIFFIRDPILFPSFIHSQKRNPQTHLKDPDMVWDFWSLRPESLHQVSFLFSDRGIPDGHRHMNGYGSHTFKLVNANGEAVYCKFHYKTDQGIKNLSVEDAARLSQEDPDYGIRDLFNAIATGKYPSWTFYIQVMTFNQAETFPFNPFDLTKVWPHKDYPLIPVGKLVLNRNPVNYFAEVEQIAFDPSNMPPGIEASPDKMLQGRLFAYPDTHRHRLGPNYLHIPVNCPYRARVANYQRDGPMCMQDNQGGAPNYYPNSFGAPEQQPSALEHSIQYSGEVRRFNTANDDNVTQVRAFYVNVLNEEQRKRLCENIAGHLKDAQIFIQKKAVKNFTEVHPDYGSHIQALLDKYNAEKPKNAIHTFVQSGSHLAAREKANL
modifications: phosphoserine at 167
Consider B3, for which, in the data set “SEC [1]”, the “Dimer (%)” value was found to be 6.23% and the “Tetramer (%)” value was determined as 51.8%. The “stoichiometry N” value in “SEC [3]” came to 4.

(Values after PMC3945115 (Free radical biology & medicine, 2013).)
